No end group written: not given here.
Tests used:
Assay in all cases: ELISA, biotinylated 12-mer peptide on streptavidin, 2 ug/mL FLAG-tagged VHH, anti-FLAG-HRP
YDAADLDPTENP = target: T1, YDAADLDPTENP (human)
T1 peptide: YDAADLDPTENP-biotin
Description: (§1) To determine whether the binding epitope of the anti-FX VHH polypeptide designated “cmpd #1” are located inside the activation peptide (AP) of human FX (SEQ ID NO:2), an ELISA assay was setup. 41 unique 12-mer peptide fragments spanning the 52 residues of the activation peptide with one amino acid spacing were immobilized in microtiter plate wells followed by incubation with the VHH polypeptide to be tested, and detection of bound ligand was performed by addition of a secondary HRP-labelled antibody.
(§2) The peptides were C-terminally conjugated to biotin and 50 μL of 1 μg/mL peptide solution was used for immobilization in discrete wells of the microtiter plate which was pre-coated with 1 μg/mL streptavidin. Each well was washed with washing buffer (10 mM Tris, 150 mM NaCl, 2.5 mM CaCl₂), 0.05% Tween 20, pH 8.60) followed by addition of 50 μL of 2 μg/mL FLAG-tagged anti-FX VHH polypeptide or IgG antibody to be tested. After 1 hour non-bound VHH polypeptide was washed off using washing buffer.
(§3) Bound anti-FX activation peptide ligand was detected by first binding a HRP-labelled secondary antibody (for FLAG-tagged VHH polypeptide: Anti-FLAG mAb M2-Peroxidase (HRP) (Sigma Aldrich, US) for 1 hour, and then adding 100 μL TMB-1 ELISA substrate (Kem-En-Tec Diagnostics, Denmark).

DLLDFNQTQPER = target: T2, DLLDFNQTQPER (human)
T2 peptide: DLLDFNQTQPER-biotin
Description: as §1, §2, §3

QTQPERGDNNLT = target: T3, QTQPERGDNNLT (human)
T3 peptide: QTQPERGDNNLT-biotin
Description: as §1, §2, §3

AADLDPTENPFD = target: T4, AADLDPTENPFD (human)
T4 peptide: AADLDPTENPFD-biotin
Description: as §1, §2, §3

TSSSGEAPDSIT = target: T5, TSSSGEAPDSIT (human)
T5 peptide: TSSSGEAPDSIT-biotin
Description: as §1, §2, §3

ADLDPTENPFDL = target: T6, ADLDPTENPFDL (human)
T6 peptide: ADLDPTENPFDL-biotin
Description: as §1, §2, §3

SGEAPDSITWKP = target: T7, SGEAPDSITWKP (human)
T7 peptide: SGEAPDSITWKP-biotin
Description: as §1, §2, §3

NQTQPERGDNNL = target: T8, NQTQPERGDNNL (human)
T8 peptide: NQTQPERGDNNL-biotin
Description: as §1, §2, §3

DFNQTQPERGDN = target: T9, DFNQTQPERGDN (human)
T9 peptide: DFNQTQPERGDN-biotin
Description: as §1, §2, §3

LDFNQTQPERGD = target: T10, LDFNQTQPERGD (human)
T10 peptide: LDFNQTQPERGD-biotin
Description: as §1, §2, §3

PDSITWKPYDAA = target: T11, PDSITWKPYDAA (human)
T11 peptide: PDSITWKPYDAA-biotin
Description: as §1, §2, §3

WKPYDAADLDPT = target: T12, WKPYDAADLDPT (human)
T12 peptide: WKPYDAADLDPT-biotin
Description: as §1, §2, §3

SITWKPYDAADL = target: T13, SITWKPYDAADL (human)
T13 peptide: SITWKPYDAADL-biotin
Description: as §1, §2, §3

FNQTQPERGDNN = target: T14, FNQTQPERGDNN (human)
T14 peptide: FNQTQPERGDNN-biotin
Description: as §1, §2, §3

TWKPYDAADLDP = target: T15, TWKPYDAADLDP (human)
T15 peptide: TWKPYDAADLDP-biotin
Description: as §1, §2, §3

DSITWKPYDAAD = target: T16, DSITWKPYDAAD (human)
T16 peptide: DSITWKPYDAAD-biotin
Description: as §1, §2, §3

ENPFDLLDFNQT = target: T17, ENPFDLLDFNQT (human)
T17 peptide: ENPFDLLDFNQT-biotin
Description: as §1, §2, §3

ITWKPYDAADLD = target: T18, ITWKPYDAADLD (human)
T18 peptide: ITWKPYDAADLD-biotin
Description: as §1, §2, §3

PTENPFDLLDFN = target: T19, PTENPFDLLDFN (human)
T19 peptide: PTENPFDLLDFN-biotin
Description: as §1, §2, §3

DPTENPFDLLDF = target: T20, DPTENPFDLLDF (human)
T20 peptide: DPTENPFDLLDF-biotin
Description: as §1, §2, §3

APDSITWKPYDA = target: T21, APDSITWKPYDA (human)
T21 peptide: APDSITWKPYDA-biotin
Description: as §1, §2, §3

TENPFDLLDFNQ = target: T22, TENPFDLLDFNQ (human)
T22 peptide: TENPFDLLDFNQ-biotin
Description: as §1, §2, §3

… (human) = target: T23, … (human)
T23 sequence (peptide, C-terminally conjugated to biotin): LLDFNQTQPERG

ELISA signal normalized relative to the background signal (YDAADLDPTENP): 0.87 relative to background
ELISA signal normalized relative to the background signal (DLLDFNQTQPER): 3.08 relative to background
ELISA signal normalized relative to the background signal (AADLDPTENPFD): 0.88 relative to background
ELISA signal normalized relative to the background signal (TSSSGEAPDSIT): 0.77 relative to background
ELISA signal normalized relative to the background signal (ADLDPTENPFDL): 0.91 relative to background
ELISA signal normalized relative to the background signal (SGEAPDSITWKP): 0.88 relative to background
ELISA signal normalized relative to the background signal (NQTQPERGDNNL): 0.92 relative to background
ELISA signal normalized relative to the background signal (DFNQTQPERGDN): 0.94 relative to background
ELISA signal normalized relative to the background signal (LDFNQTQPERGD): 0.97 relative to background
ELISA signal normalized relative to the background signal (PDSITWKPYDAA): 1.05 relative to background
ELISA signal normalized relative to the background signal (WKPYDAADLDPT): 0.89 relative to background
ELISA signal normalized relative to the background signal (SITWKPYDAADL): 1.08 relative to background
ELISA signal normalized relative to the background signal (FNQTQPERGDNN): 1 relative to background
ELISA signal normalized relative to the background signal (TWKPYDAADLDP): 1.13 relative to background
ELISA signal normalized relative to the background signal (DSITWKPYDAAD): 1.08 relative to background
ELISA signal normalized relative to the background signal (ENPFDLLDFNQT): 4 relative to background
ELISA signal normalized relative to the background signal (ITWKPYDAADLD): 1.1 relative to background
ELISA signal normalized relative to the background signal (PTENPFDLLDFN): 4.58 relative to background
ELISA signal normalized relative to the background signal (DPTENPFDLLDF): 4.16 relative to background
ELISA signal normalized relative to the background signal (APDSITWKPYDA): 1.06 relative to background
ELISA signal normalized relative to the background signal (TENPFDLLDFNQ): 4.84 relative to background
ELISA signal normalized relative to the background signal (relative to background) (… (human)): 1.88
B1: Cmpd #1 (monovalent anti-FX VHH polypeptide, VHH-1.1) (VHH)
VHH: EVQLVESGGGLVQPGGSLRLSCAASGSIGAFDAMGWYRQAPGKQRELVAGIMVSRGNTNYTDSVKGRFTISRDNAKNTVYLQMNSLKPEDTAVYYCKAVKRPGPGYLEVWGQGTLVTVSS
notes: No protractor
ELISA signal normalized relative to the background signal (QTQPERGDNNLT): 0.88 relative to background

Reference: patent US20240067944A1 (published 2024)
